# According to US20150351390A1, “COMPOSITIONS AND METHODS FOR AUXIN-ANALOG CONJUGATION” (PIONEER HI-BRED INTERNATIONAL, INC., priority 2012, published 2015):
# B1: AIGH3-6: GH3 protein, accession XP_002866046 (protein, listed as Arabidopsis lyrata)
# chain: MPEAPKIVALEVSDESLAEKNKNKLQFIEDVTTNADDVQRRVLEEILSRNADVEYLKRHGLDGRTDRETFKHVMPVVTYEDIQPEINRIANGDKSQILCSNPISEFLTSSGTSGGERKLMPTIEEELDRRSLLYSLLMPVMNQFVPGLDKGKGMYFLFIKSESKTPGGLPARPVLTSYYKSSHFKNRPFDPYNNYTSPNQTILCSDSYQSMYSQMLCGLCQHKEVLRVGAVFASGFIRAIKFLEKHWSELARDIRTGTLSSEITDLSVREAVGEILKPDPKLADFVESECRKTSWQGIITRLWPNTKYVDVIVTGTMSQYIPTLDYYSNGLPLVCTMYASSECYFGVNLRPLCKPSEVSYTLIPNMAYFEFLPVHRNSGVTSSISLPKALTEKEQQELVDLVDVKLGQEYELVVTTYAGLYRYRVGDVLSVAGFKNNAPQFSFICRKNVALSIDSDKTDEVELQNAVKNAVTHLVPFDASLSEYTSYAETSSIPGHYVLFWELCLNGNTPIPPSVFEDCCLTIEESLNSVYRQGRVSDKSIGPLEIKMVESGTFDKLMDYAISLGASINQYKTPRCVKFAPIIELLNSRVVDSYFSPKCPKWAPGHKQWGSN
# B2: AIGH3-2: GH3 protein, accession XP_002868993 (protein, listed as Arabidopsis lyrata)
# chain: MAVDSPLQSRMVSPTTSEKDVKALKFIEEMTRNPDSVQEKVLGEILSRNSNTEYLKRFDINGAIDRNTFKNKVPVVTYEDLKPEIQRISNGDRSPILSSHPITEFLTSSGTSAGERKLMPTIEEDLDRRQLLYSLLMPVMNLYVPGLDKGKGLYFLFVKSESKTSGGLPARPVLTSYYKSDHFRRRPYDPYNVYTSPNEAILCSDSSQSMYAQMLCGLLMRHEVLRLGAVFASGLLRAISFLQNNWKELARDISTGTLSSRIFDPTIKNRMSKILIKPDQELAEFLIGVCSQENWEGIITKIWPNTKYLDVIVTGAMAQYIPTLEYYSGGLPMACTMYASSESYFGINLKPMCKPSEVSYTIMPNMAYFEFLPHNHDGDGATEASLDETSLVELADVEVGKEYELVITTYAGLYRYRVGDILRVTGFHNSAPQFKFIRRKNVLLSIESDKTDEAELQKAVENASRLFAEQGTRVIEYTSYAETKTIPGHYVIYWELLGRDQSNALPSEEVMAKCCLEMEESLNSVYRQSRVADKSIGPLEIRLVQNGTFEELMDYAISRGASINQYKVPRCVSFTPIMELLDSRVVSAHFSPSLPHWSPERRR
# B3: AtGH3-1: GH3 protein, accession O82333 (protein, listed as Arabidopsis thaliana)
# chain: MAVDSNLSSPLGPPACEKDAKALRFIEEMTRNADTVQENLLAEILARNADTEYLRRFNLCGATDRDTFKTKIPVITYEDLQPEIQRIADGDRSPILSAHPISEFLTSSGTSAGERKLMPTIKEELDRRQLLYSLLMPVMNLYVPGLDKGKGMYFLFVKSETKTPGGLPARPVLTSYYKSEHFRSRPYDPYNVYTSPNEAILCPDSFQSMYTQMLCGLLDRLSVLRVGAVFASGLLRAIRFLQLHWSRFAHDIELGCLDSEITDPSIRQCMSGILKPDPVLAEFIRRECKSDNWEKIITRIWPNTKYLDVIVTGAMAQYIPTLEYYSGGLPMACTMYASSECYFGLNLNPMSKPSEVSYTIMPNMAYFEFIPLGGTKAVELVDVNIGKEYELVVTTYAGLCRYRVGDILRVTGFHNSAPQFHFVRRKNVLLSIDSDKTDESELQKAVENASSILHEECGSRVAEYTSYADTSTIPGHYVLYWELLVRDGARQPSHETLTRCCLGMEESLNSVYRQSRVADNSVGPLEIRVVRNGTFEELMDYAISRGASINQYKVPRCVNFTPIVELLDSRVVSAHFSPSLPHWTPERRRR
# B4: AtGH3-4: GH3 protein, accession Q9LQ68 (protein, listed as Arabidopsis thaliana)
# chain: MAVDSLLQSGMASPTTSETEVKALKFIEEITRNPDSVQEKVLGEILSRNSNTEYLKRFDLNGAVDRKSFKSKVPVVIYEDLKTDIQRISNGDRSPILSSHPITEFLTSSGTSAGERKLMPTIEEDINRRQLLGNLLMPVMNLYVPGLDKGKGLYFLFVKSESTTSGGLPARPALTSYYKSDYFRTSDSDSVYTSPKEAILCCDSSQSMYTQMLCGLLMRHEVNRLGAVFPSGLLRAISFLQNNWKELSQDISTGTLSSKIFDHAIKTRMSNILNKPDQELAEFLIGVCSQENWEGIITKIWPNTKYLDVIVTGAMAEYIPMLEYYSGGLPMASMIYASSESYFGINLNPMCKPSEVSYTIFPNMAYFEFLPHNHDGDGGVEATSLVELADVEVGKEYELVITTYAGLYRYRVGDILRVTGFHNSAPQFKFIRRENVLLSIESDKTDEADLQKAVENASRLLAEQGTRVIEYTSYADTKTIPGHYVIYWELLSRDQSNALPSDEVMAKCCLEMEESLNAVYRQSRVSDKSIGPLEIRVVQNGTFEELMDFSISRGSSINQYKVPRCVSLTPIMKLLDSRVVSAHFSPSLPHWSPERRH
# B5: AIGH3-5: GH3 protein, accession XP_002869571 (protein, listed as Arabidopsis lyrata)
# chain: MPEAPKKVSLEVFDLTLDQKNKQKLQLIEELTSNADQFQRRVLEEILSRNADVEYLRRHYLNGRTDRETFKNVMPVITYEDIQPEINRIANGDKSPILSSKPISEFLTSSGTSGGERKLMPTIEEELDRRSLLYSLLMPVMSQFVPGLENGKGMYFLFIKSESKTPGGLPARPVLTSYYKSSHFKERPYDPYTNYTSPNETILCSDSYQSMYSQMLCGLCQHQEVLRVGAVFASGFIRAIKFLEKHWTELVRDIRTGTLSSLITDPSVREAVSKILKPNSKLAEFVEFECKKSSWQGIITRLWPNTKYVDVIVTGTMSQYIPTLDYYSNGLPLVCTMYASSECYFGVNLRPLCKPSEVSYTLIPSMAYFEFLPVHRNNGVTNSINLPKALTEKEQQELVDLVDVKLGQEYELVVTTYAGLCRYRVGDLLRVTGFKNKAPQFSFICRKNVVLSIDADKTDEVELQNAVKNAVTYLVPFDASLSEYTSYADTSSIPGHYVLFWELCLDGNTPIPPSVFEDCCLTVEESFNTVYRQGRVSDKSIGPLEIKIVEPGTFDKLMDYAISLGASINQYKTPRCVKFAPIIELLNSRVVNSYLSPKCPKWVPGHKQWGSN
# B6: AIGH3-4: GH3 protein, accession XP_002886679 (protein, listed as Arabidopsis lyrata)
# chain: MAVDSPLQSRIASPTTSEKDMKALMFIEEMTRNPDSVQEKVLGEILSRNSNTEYLKRFDLNGAVDRKTFKSKVPVVMYEDLKTEIQRISNGDRSPILSSHPINEFLTSSGTSSGERKLMPTIEEDIHRRQLLGSLLMPVMNLYLPGLDKGKGLYFLFVKSESKTSGGLPARPALTSYYKSDHFKTSDLQNDYTSPREAILCSDSSQSMYAQMLCGLLMRHEVLRLGAVFPSGLLRAISFLQNNWKELAQDISTGILSSKIFDPAVNNRMSKILNKPDEELAEFLIGVCSQENWEGIITKIWPNTKYLDVIITGAMAQYIPMLEYYSGGLPIASTIYASSESYFGINLNPMCKPSEVSYTIMPNMAYFEFLPHNHDGDGALDETSLVELADVEVGKEYELVITTYAGLYRYRVGDILCVTGFHNSAPQFKFIRRKNVLLSIESDKTDEADLQKAVDNASRLLAEQGTSVIEYTSYAETKTIPGHYVIYWELLGRDQSNALPSDEVMAKCCLEMEESLNSVYRQSRVSDKSIGPLEIRVVQNGTFDELMDYAISRGSSINQYKVPRCVSLTPILELLDSRVVSAHFSTSLPHWSPERRH
# B7: AtGH3-2: GH3 protein, accession AEE86787 (protein, listed as Arabidopsis thaliana)
# chain: MAVDSPLQSRMVSATTSEKDVKALKFIEEMTRNPDSVQEKVLGEILTRNSNTEYLKRFDLDGVVDRKTFKSKVPVVTYEDLKPEIQRISNGDCSPILSSHPITEFLTSSGTSAGERKLMPTIEEDLDRRQLLYSLLMPVMNLYVPGLDKGKGLYFLFVKSESKTSGGLPARPVLTSYYKSDHFKRRPYDPYNVYTSPNEAILCSDSSQSMYAQMLCGLLMRHEVLRLGAVFASGLLRAISFLQNNWKELARDISTGTLSSRIFDPAIKNRMSKILTKPDQELAEFLVGVCSQENWEGIITKIWPNTKYLDVIVTGAMAQYIPTLEYYSGGLPMACTMYASSESYFGINLKPMCKPSEVSYTIMPNMAYFEFLPHNHDGDGAAEASLDETSLVELANVEVGKEYELVITTYAGLYRYRVGDILRVTGFHNSAPQFKFIRRKNVLLSVESDKTDEAELQKAVENASRLFAEQGTRVIEYTSYAETKTIPGHYVIYWELLGRDQSNALMSEEVMAKCCLEMEESLNSVYRQSRVADKSIGPLEIRVVRNGTFEELMDYAISRGASINQYKVPRCVSFTPIMELLDSRVVSAHFSPSLPHWSPERRR
# Key:
# [1] = LC-MS assay of GH3 conjugation of 2,4-D with Asp or Glu; type: biochemical; conditions: 5 mM 2,4-D substrate; for kcat (hrs−1) 2,4-D-Asp: conjugation of 2,4-D with Asp by recombinant GH3 protein, 2,4-D-Asp product by LC-MS; for kcat (hrs−1) 2,4-D-Glu: conjugation of 2,4-D with Glu by recombinant GH3 protein, 2,4-D-Glu product by LC-MS
# How it was run: (§1)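 Amino acid conjugates of IAA, 2,4-D or dicamba measured by LC-MS against conjugate standards, with kinetic parameters fitted to Michaelis-Menten initial velocities. Reactions: 5 mM each of auxin, ATP and Asp or Glu with 44 to 164 μg/mL purified His-tagged GH3 (E. coli-expressed), pH 8.0 Tris, 5 mM MgCl2, 1 mM DTT, 30 °C for 3 h.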
# [2] = LC-MS assay of GH3 conjugation of IAA with Asp or Glu; type: biochemical; conditions: for kcat (hrs−1) IAA-Asp: conjugation of IAA with Asp by recombinant GH3 protein, IAA-Asp product by LC-MS; for kcat (hrs−1) IAA-Glu: conjugation of IAA with Glu by recombinant GH3 protein, IAA-Glu product by LC-MS
# How it was run: as §1
Molecule,"kcat (hrs−1) 2,4-D-Asp [1]","kcat (hrs−1) 2,4-D-Glu [1]",kcat (hrs−1) IAA-Asp [2],kcat (hrs−1) IAA-Glu [2]
B1,1.300 h⁻¹,0.211 h⁻¹,413.293 h⁻¹,20.881 h⁻¹
B2,1.903 h⁻¹,0.309 h⁻¹,583.500 h⁻¹,13.953 h⁻¹
B3,1.188 h⁻¹,0.136 h⁻¹,437.707 h⁻¹,19.230 h⁻¹
B4,2.032 h⁻¹,0.594 h⁻¹,414.602 h⁻¹,37.932 h⁻¹
B5,1.586 h⁻¹,0.421 h⁻¹,429.073 h⁻¹,24.704 h⁻¹
B6,0.040 h⁻¹,0.006 h⁻¹,3.013 h⁻¹,0.000 h⁻¹
B7,1.200 h⁻¹,0.131 h⁻¹,511.761 h⁻¹,30.640 h⁻¹
